Data: PMC4786724, “NdhM Subunit Is Required for the Stability and the Function of NAD(P)H Dehydrogenase Complexes Involved in CO2 Uptake in Synechocystis sp. Strain PCC 6803* ^([image sbox.jpg])” (The Journal of Biological Chemistry, 2015)

Columns and labels:
NdhH-His6 = target: T1, NdhH-His6 (Synechocystis sp. PCC 6803, UniProt P27724 1-394); assay: pull-down; GST-NdhM on glutathione-Sepharose 4B resin as bait, His-tagged Ndh subunits as prey; 2 h at 4 °C in 20 mM Tris-HCl pH 7.5, 100 mM NaCl, 0.1 mM EDTA, 0.2% Triton, 10% glycerol; washed five times with 300 mM NaCl, 0.5% Nonidet P-40; eluates blotted with anti-His antibody; details: both partners purified
T1 construct: NdhH subunit of NDH-1, Synechocystis sp; PCC 6803; fragment containing ndhH cloned into pET28a; also called His-tagged NdhH; source: E. coli BL21(DE3) pLysS, purified (nickel column)
T1 sequence (looked up): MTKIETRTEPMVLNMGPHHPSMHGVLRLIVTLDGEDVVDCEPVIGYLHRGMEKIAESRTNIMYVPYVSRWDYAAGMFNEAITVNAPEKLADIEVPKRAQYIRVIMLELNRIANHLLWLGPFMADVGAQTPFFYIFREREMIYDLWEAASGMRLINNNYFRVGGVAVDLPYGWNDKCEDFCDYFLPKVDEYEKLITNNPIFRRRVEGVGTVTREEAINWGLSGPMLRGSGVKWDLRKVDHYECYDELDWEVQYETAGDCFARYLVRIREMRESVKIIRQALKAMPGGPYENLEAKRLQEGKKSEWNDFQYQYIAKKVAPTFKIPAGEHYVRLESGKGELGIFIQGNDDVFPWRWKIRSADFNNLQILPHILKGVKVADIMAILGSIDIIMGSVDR

NdhI-His6 = target: T2, NdhI-His6 (Synechocystis sp. PCC 6803, UniProt P26525 1-193); assay: as above; details: both partners purified
T2 construct: NdhI subunit of NDH-1, Synechocystis sp; PCC 6803; fragment containing ndhI cloned into pET28a; also called His-tagged NdhI; source: E. coli BL21(DE3) pLysS, purified (nickel column)
T2 sequence (P26525 whole entry, the tested form may be a part): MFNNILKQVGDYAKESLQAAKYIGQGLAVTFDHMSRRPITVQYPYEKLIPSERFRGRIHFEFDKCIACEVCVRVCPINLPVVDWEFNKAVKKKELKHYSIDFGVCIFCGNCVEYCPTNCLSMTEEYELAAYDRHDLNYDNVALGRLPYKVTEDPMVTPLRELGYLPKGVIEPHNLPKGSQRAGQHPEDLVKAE

- binding result (NdhH-His6): binds
- binding result (NdhI-His6): binds
B1: GST-NdhM (natural protein, Synechocystis sp. PCC 6803, UniProt P74338 1-121, looked up)
chain: MLVKSTTRHVRIFSAEVQGNELIPSNNVLTMDVDPDNEFVWNEDALQQVYRRFDELVESYSGEDLTDYNLRRIGSDLEHFIRDLLQAGKVSYNLDCRVLNYSMGLPKVENQETAGKYWLDN
notes: NdhM subunit of NDH-1, Synechocystis sp; PCC 6803, gene slr1623 (ndhM); fragment containing ndhM cloned into pGEX-4T-1; also called recombinant NdhM fused with GST; NdhM fused to GST; source: E. coli BL21(DE3) pLysS, purified (glutathione-Sepharose 4B column)
